Several values for one entry are separate records, joined by “and”; a condition that tells them apart may be missing. Equal values may be shown once. Read-outs that look alike come from different tables or passages of the source. Where a SMILES comes first, the peptide text is derived from it. [ ]: non-standard residue; d: D form. The star is where a group is joined. Sta = CC(C)C[C@H](N)[C@@H](O)CC(=O)O; Isovaleryl = CC(C)CC(=O)*
What was measured:
[1] = test system: purified protease of Thermoactinomyces sp. 16 (protease 16); format: biochemical; conditions: for Inhibition of the enzyme (in words): 10 mM inhibitor
BSA (1%, w/v) [2] = assay: Effect of pH on protease activity of original and recombinant proteinase 16; format: biochemical; conditions: 0.1M Universal buffer, 30 min, 40 C
[3] = biological target: PrP^Sc, RML scrapie strain (Mus musculus, UniProt P04925); conditions: pH 7
[4] = biological target: PrP (PrP^C and PrP^Sc) in GT22L lysate, 22 L scrapie strain (Mus musculus, UniProt P04925); conditions: pH 7
[5] = biological target: PrP (PrP^C and PrP^Sc) in N2a22L20 lysate, 22 L scrapie strain (Mus musculus, UniProt P04925); conditions: pH 7
[6] = biological target: PrP (PrP^C and PrP^Sc) in GTK lysate, chandler scrapie isolate (Mus musculus, UniProt P04925); conditions: pH 7
[7] = biological target: pK resistant prion material (PrP^Sc) (Mus musculus, UniProt P04925)
PrP^Sc, BSE strain 301V = PrP^Sc, BSE strain 301V (Mus musculus, UniProt P04925); conditions: pH 7
BSA (1%, w/v) [8] = assay: Effect of pH and temperature on protease activity
[9] = test system: bovine serum albumin (BSA); assay: Protease assay of purification steps of protease 16 (BSA, 0.1M CAPS pH 11.0, 40° C.); format: biochemical
Text: The secreted protease was purified from cell free supernatant by (NH4)2SO4 (0-60%) fractionation followed by affinity chromatography on Bacitricin-Sepharose 4B according to the quantities shown in Table 3 below.
The first step was ammonium sulphate (0-60%) fractionation. To express the final ammonium sulphate concentration as % ammonium sulphate saturation the Green and Hughes calculations were used. The precipitate obtained after fractionation was suspended in 0.02M HEPES buffer, pH 7.0 and was dialysed against water for 24 h. The second step used was affinity chromatography on bacitracin-Sepharose 4B using a modification of the method of Stepanov and Rudenskaya. Bacitracin-Sepharose 4B was equilibrated with 0.04M Tris/HCL, pH 7.9. Enzyme solution in 0.04M Tris/HCL pH 7.9 was applied to the column and the column was washed with the same buffer to remove all unbound protein. […] The propan-2-ol and NaCl were removed from the protease solution by dialysis.

[10] = 10 mM reagent, purified protease 16

CC(C)C[C@H](NC(=O)[C@@H](O)[C@H](N)Cc1ccccc1)C(=O)O [Bestatin]
Residual protease activity (% of control, no reagent) (10 mM) [1]: 92.6 % of control, no reagent

O=C(O)CN(CCN(CC(=O)O)CC(=O)O)CC(=O)O [Ethylenediaminetetraacetic acid]
Residual protease activity (% of control, no reagent) (10 mM) [1]: 99.6 % of control, no reagent

CC(=O)N[C@@H](CC(C)C)C(=O)N[C@@H](CC(C)C)C(=O)N[C@H](C=O)CCCNC(=N)N [Leupeptin]
Residual protease activity (% of control, no reagent) (10 mM) [1]: 56.8 % of control, no reagent

Cl.NCCc1ccc(S(=O)(=O)F)cc1 [Pefabloc]
Inhibition of the enzyme (in words) [1]: significantly inhibited | Residual protease activity (% of control, no reagent) (10 mM) [1, 10]: 2.9 % of control, no reagent

CC(C)CC(=O)N[C@H](C(=O)N[C@H](C(=O)N[C@@H](CC(C)C)[C@@H](O)CC(=O)N[C@@H](C)C(=O)N[C@@H](CC(C)C)[C@@H](O)CC(=O)O)C(C)C)C(C)C [Pepstatin] (Isovaleryl-VV[Sta]A[Sta]-OH)
Residual protease activity (% of control, no reagent) (10 mM) [1]: 97.6 % of control, no reagent

O=S(=O)(F)Cc1ccccc1 [Phenylmethylsulfonyl fluoride]
Inhibition of the enzyme (in words) [1]: significantly inhibited | Residual protease activity (% of control, no reagent) (10 mM) [1, 10]: 5.4 % of control, no reagent

B1: recombinant Thermitase 16: protease 16 cloned and heterologously expressed in Lactococcus lactis strain MG1363 (L. lactis strain 16), heat activated (protein)
chain: YTPNDPYFSSRQYGPQKIQAPQAWDIAEGSGVKIAIVDTGVQSNHPDLAGKVVGGWDFVDNDSTPQDGNGHGTHCAGIAAAVTNNSTGIAGTAPKASILAVRVLDNSGSGTWTAVANGITYAADQGAKVISLSLGGTVGNSGLQQAVDYAWNKGSVVVAAAGNAGNTAPNYPAYYSNAIAVASTDQNDNKSSFSTYGSWVDVAAPGSSIYSTYPTSTYASLSGTSMATPHVAGVAGLLASQGRSASNIRAAIENTADKISGTGTYWAKGRVNAYKAVQY
Activity levels of original versus recombinant protease at the same pHs (BSA (1%, w/v) [2]): little difference in activity levels | Removal of RML prion strain as detected by western blot [3]: remove all traces of the RML prion strain

B2: protease 16: Thermitase (serine alkaline protease, EC 3.4.21.66) secreted by Thermoactinomyces sp. 16; mature amino acid sequence SEQ ID NO: 1 (protein)
chain: B1 chain
modifications: Thermoactinomyces sp. 16
Detectable PrP by western blot, antibody 7A12 [4]: complete loss of detectable PrP | Detectable PrP by western blot, antibody 7A12 [5]: complete loss of detectable PrP | PrP signal by western blot, antibodies 8H4, 11G5 and GE8 [5]: No signal | Detectable PrP by western blot, antibody 7A12 [6]: complete loss of detectable PrP | Detectable prion signal [7]: complete loss of detectable prion signal | Time to degrade the prion [7]: ≤ 15 min | Time to degrade 301V brain material (PrP^Sc, BSE strain 301V): ≤ 15 min | Time to degrade 301V from mouse brain homogenate (PrP^Sc, BSE strain 301V): ≤ 15 min | Activity levels of original versus recombinant protease at the same pHs (BSA (1%, w/v) [2]): little difference in activity levels | pH of optimal activity (BSA (1%, w/v) [8]; BSA in 0.1M Universal buffer, pHs 2.0-12.0): 11.0 and > 8.0 | Temperature of optimal activity (BSA (1%, w/v) [8]; assay at 20-90° C.): 50 °C | Activity at the assay pH of pH 7.0 (BSA (1%, w/v) [8]; pH 7.0): retains significant activity | Specific activity (units/mg protein) ([9]; purification step: (NH4)2SO4 (0-60%) fractionation): 0.79 units/mg protein | Specific activity (units/mg protein) ([9]; purification step: Bacitricin-Sepharose 4B): 3.56 units/mg protein | Specific activity (units/mg protein) ([9]; purification step: Cell free supernatant): 0.05 units/mg protein | Removal of RML prion strain as detected by western blot [3]: remove all traces of the RML prion strain
